# Assay results published in US20170152308A1.
# Residue numbers refer to the chain shown, from its start.
# B1: NI-205.21G1 (antibody, human IgG1, V domains shown)
# VH: QVQLVESGGGVVQPGMSLRLSCAASGFSFSSHGMHWVRQTPGKGLEWLAVISYDASNKSYADSVKGRFTISRDNSKKTLYLQMDSLRVEDTALYYCANAFSSSASGGYWGQGTLVTVSS
# VL: DVVMTQSPLSLPVTLGQPASISCRSSQSLVHSDGVTYLNWFQQRPGQSPRRLIYKVSNRDSGVPDRFSGSGSGTDFTLEISRVEAEDVGIYYCMQGTHWPPWTFGQGTKVEIK
# B2: NI-205.58E11 (antibody, human IgG1, V domains shown)
# VH: EVQLLESGGGLVQPGGSLRLSCAASGFTFSSYSMSWVRQAPGKGLEWVATVGYGGTIYYADSVKGRFTISRDNSKNTLYLEMNSLRAEATAVYYCAKANYGGNRFGLDVWGQGTTVTVSS
# VL: QSALTQPPSASGSPGQSVTISCTGTSSDVGGYNYVSWYQHQPGKAPKLMIYEVSKRPSGVPDRFSGSKSGNTASLTVSGLQAEDEADYYCSSYAGSNNLGVFGTGTEVTVL
# B3: NI-205.8F8 (antibody, human IgG1, V domains shown)
# VH: EVQLLESGGGLVQPGGSLRLSCAASGYTFSYYAMSWVRQAPGKGLEWVSTIGDSGSTTHYADSVKGRFTISRDNSKSTLYLQMNSLRAEDTAVYYCAKGLGPVAAIGDYWGQGTLVTVSS
# VL: QSVLTQPPSASGTPGQRVTISCSGSSSNIGSNNVYWYQQLPGTAPKLLVYRNNQRPSGVPDRVSGSKSGSSASLAISGLRSEDEADYYCAAWDDSLRGYVFGTGTKVTVL
# B4: NI-205.68G5 (antibody, human IgG1, V domains shown)
# VH: QVQLVESGGGVVQPGRSLRLSCAASGFTFSSYGMHWVRQAPGKGLEWVAIIYYDSSQRYYADSVKGRFTISRDNSKNALYLQMNSLRAEDTALYYCARDLPFHYHRSASFAPSDTWGQGTLVTVSS
# VL: EIVLTQSPGTLSLSPGERATLSCRASQAVTNNYLAWYQQKPGQAPRLLVYAASSRATGIPDRFYGSGSGADFTLTISRLEPEDFAVYYCQQYGTSPITFGQGTRLEIK
# B5: NI-205.14H5 (antibody, human IgG1, V domains shown)
# VH: EVQLLESGGGLVQPGGSLRLSCAASGFTFRNYAMAWVRQAPGKGLEWVSAIPARGDKTYYADSVRGRFTISRDISKSALYLQMNSLRVEDTAVYYCAKAHHLYNKNFDYWGQGTLVTVSS
# VL: EIVLTQSPGTLSLSPGETVTLSCRASQSVSSSNLAWYQQKPGQAPRLLIYGASSRATGIPDRFSGRGSGTDFTLTISRLEPEDFAVYYCQHYGTFGQGTKVDIK
# B6: NI-205.36D5 (antibody, human IgG1, V domains shown)
# VH: B4 VH with G26R, I50L, S55A, S56T, R58K, N84T, E89D, L93V, F102Y, S113A
# VL: B4 VL with A28T, V29I, T30S, A85V, T94S
# Target: synthetic peptide of residues 390-414 of TDP-43 with phosphorylation at residues 409/410 (human)
# Sequence (peptide, as listed by the source): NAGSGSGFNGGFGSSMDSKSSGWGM
# Test: direct ELISA, coated antigen
row,EC50,Binder
1,49.5 nM,B1
2,6.9 nM,B2
3,5.1 nM,B3
4,16.9 nM,B4
5,0.9 nM,B5

# Target: synthetic peptide of residues 390-414 of TDP-43 with phosphorylation at residues 409/410 (human)
# Test: direct ELISA, coated antigen; direct ELISA, coated synthetic phospho-409/410 peptide 390-414 (3.3 ug/ml)
row,EC50,Binder
1,4.3 nM,B6
